Data set [1] has as its target T1, GltTk (Thermococcus kodakarensis, UniProt Q5JID0).
T1 construct: gene TK0986; C-terminally His8-tagged (pBAD24-GltTk-His8), expressed in E. coli MC1061, purified in decylmaltoside-type detergent (DM) or reconstituted in proteoliposomes; homotrimer
The data set is described as follows: isothermal titration calorimetry. It counts as binding. From the text:
(§1) isothermal titration calorimetry on GltTk
(In general: Isothermal titration calorimetry measures the heat released or taken up as one component is titrated into another.)

Data set [2] addresses T1, GltTk. Description: isothermal titration calorimetry. As to conditions: 300 mM NaCl, 100 mM KCl, pH 8.0, 25 °C, 0.15% DM; Na+-coupled binding; cited from earlier work.
Text: as §1

Data set [3] concerns the target glutamate transporter homolog GltTk from Thermococcus kodakarensis (Thermococcus kodakarensis) (UniProt Q5JID0). The data set is described as follows: crystal structure; GltTk with D-aspartate, 2.8 Å; hanging drop vapour diffusion at 5°C, 300 mM NaCl, 300 µM D-aspartate, protein 7 mg/ml in 10 mM Hepes KOH pH 8.0, 100 mM KCl, 0.15% DM; outward-oriented occluded state.

Substrate in data set [4]: N[C@@H](CC(=O)O)C(=O)O
Description: purified protein. As to conditions: 100 mM NaCl outside, pH 7.5, 3 µM valinomycin, labelled compound.

Substrate in data set [5]: N[C@H](CC(=O)O)C(=O)O
Description: purified protein. As to conditions: 100 mM NaCl outside, pH 7.5, 3 µM valinomycin, labelled compound.

Where two headings read alike, the source gives them in different places.

The term Kd denotes the equilibrium constant for the complex coming apart. Usually stoichiometry N stands for a count of units in the complex or per binding partner. Broadly, the Km is the substrate concentration at which the rate is half of its maximum.

For the molecule `N[C@H](CC(=O)O)C(=O)O` [D-aspartate], on GltTk [1], the Kd stood at 470 ± 170 nM.

`N[C@@H](CC(=O)O)C(=O)O` [L-aspartate]: the Kd on GltTk [2] is 120 ± 40 nM.

Consider “glutamate transporter homolog GltTk from Thermococcus kodakarensis (from UniProt Q5JID0 1-430) (natural protein)”, for which the stoichiometry N in data set [3] amounted to 3.

B1: GltTk (Thermococcus kodakarensis KOD1) (protein)
chain: MGKSLLRRYLDYPVLWKILWGLVLGAVFGLIAGHFGYAGAVKTYIKPFGDLFVRLLKMLVMPIVLASLVVGAASISPARLGRVGVKIVVYYLATSAMAVFFGLIVGRLFNVGANVNLGSGTGKAIEAQPPSLVQTLLNIVPTNPFASLAKGEVLPVIFFAIILGIAITYLMNRNEERVRKSAETLLRVFDGLAEAMYLIVGGVMQYAPIGVFALIAYVMAEQGVRVVGPLAKVVGAVYTGLFLQIVITYFILLKVFGIDPIKFIRKAKDAMITAFVTRSSSGTLPVTMRVAEEEMGVDKGIFSFTLPLGATINMDGTALYQGVTVLFVANAIGHPLTLGQQLVVVLTAVLASIGTAGVPGAGAIMLAMVLQSVGLDLTPGSPVALAYAMILGIDAILDMGRTMVNVTGDLAGTVIVAKTEKELDESKWIS
Turning to B1, the Km in “purified protein [4]” was 0.75 ± 0.17 µM; in the data set “purified protein [5]”, 1.1 ± 0.11 µM.

These data come from publication PMC6482001 (eLife, 2019).
